Data on five molecules can be found in patent US20020127229A1, “Tumour therapy” (priority 1996, published 2002).

One data set relates to target cells in vitro. The conditions noted are these: cited from earlier work.
In data set [1] the test system is human colon carcinoma LS174T. The arrangement: species or system nude mice. The conditions noted are these: mouse, in vivo. How it is done: The following figures (FIGS. 2 to 6) illustrate the biodistribution of carboxypeptidase G2 conjugated to PEG in nude mice bearing the human colon carcinoma LS174T. The mice were injected intravenously with the specified amount of enzyme (measured as enzyme units) using 4 mice per time point. Mice were killed at 24 h, 48 h, and 72 h after injection, in some cases at 96 h and 120 h. CPG2 activity in plasma was measured by spectrophotometric assay using methotrexate as the substrate. CPG2 activity in tumour and other tissues was measured by HPLC using methotrexate as the substrate.
The biodistribution of native CPG2 and PEG-CPG2 at 72 hours is illustrated in FIGS. 7 and 8.
FIG. 4(a). Biodistribution of CPG2 activity following use of galactosylated SB43 (clearing antibody). Mice were given CPG2 conjugated to PEG 2000 mwt, average 22 mols PEG per molecule of CPG2, at time 0. Galactosylated monoclonal antibody SB43 was given 19, 20 and 21 hrs later by IP route. The mice were killed at 24 h post CPG2.
In relation to FIG. 4(a) and 4(b) these show good tumour to normal tissue concentration and ratios following use of the clearing antibody. However, it is not possible to administer the clearing antibody as efficiently in the mouse as in the human patient.
I have investigated PEG (mol wt 5000) in the range of 13-32 PEG molecules per enzyme molecule (CPG2, mol wt 83,000); the higher the molecular weight the higher and more prolonged is the plasma concentration of enzyme achieved. The higher the plasma concentration the higher tumour concentration in the tumour model LS174T. Since one objective is to get as much enzyme into the tumour as possible and prolong the period for which an effective concentration of enzyme is sustained in the tumour the conjugate giving the highest concentration of enzyme in blood is preferred. However, the choice of conjugate also has to take account of the need to clear enzyme from blood after the desired concentration of enzyme has been achieved in the tumour(s) and before prodrug is given. A conjugate which is difficult to clear from blood would be disadvantageous so that compromise between these two requirements may be necessary.
Thus, PEG with a molecular weight of 2000 in the range 20 to 40 PEG molecules per molecule of enzyme is preferred, giving a total molecular weight in the range of around 130-160 kDal, but associated water of hydration gives a molecular size equivalent to molecules of much greater weight.

A further data set deals with LS174T tumours. The data set can be described thus: Tumour growth delay in the LS174T tumour model (MDEPT therapy). Format: in vivo, nude mice. The conditions noted are these: with CPG2 clearance antibody SB43 and the phenol prodrug (25 mg/kg i.p., 3 doses). The protocol: FIG. 6. Nude mice bearing LS174T tumours were given 25 enzyme units of CPG2-PEG (22 PEG molecules, PEG 5000) followed at 20 hr, 23 h, 26 h by galactosylated SB43. At 48 h post CPG2-PEG they received 25 mg/kg of a phenol prodrug (4-[N,N-bis(2-chloroethyl)amino]-phenoxycarbonyl-L-glutamic acid) intraperiotoneally, repeated to a total of 3 doses at 1 hr intervals.
FIG. 6. Nude mice bearing LS174T tumours were given 25 enzyme units of CPG2-PEG (22 PEG molecules, PEG 5000) followed at 20 hr, 23 h, 26 h by galactosylated SB43. At 48 h post CPG2-PEG they received 25 mg/kg of a phenol prodrug intraperiotoneally, repeated to a total of 3 doses at 1 hr intervals.

As for `CC(NC(=O)C(CCC(=O)O)NC(=O)c1ccc(N(C)Cc2cnc3nc(N)nc(N)c3n2)cc1)C(=O)O` (stereo not drawn) [Alanine methotrexate], in the data set with target cells in vitro, the “toxicity relative to native methotrexate (fold less)” value is 50-100 fold.

B1: Native ^125I-CPG2: bacterial enzyme carboxypeptidase G2, not conjugated to PEG (protein, UniProt P06621 23-415, looked up)
Carboxypeptidase G2: ALAQKRDNVLFQAATDEQPAVIKTLEKLVNIETGTGDAEGIAAAGNFLEAELKNLGFTVTRSKSAGLVVGDNIVGKIKGRGGKNLLLMSHMDTVYLKGILAKAPFRVEGDKAYGPGIADDKGGNAVILHTLKLLKEYGVRDYGTITVLFNTDEEKGSFGSRDLIQEEAKLADYVLSFEPTSAGDEKLSLGTSGIAYVQVNITGKASHAGAAPELGVNALVEASDLVLRTMNIDDKAKNLRFNWTIAKAGNVSNIIPASATLNADVRYARNEDFDAAMKTLEERAQQKKLPEADVKVIVTRGRPAFNAGEGGKKLVDKAVAYYKEAGGTLGVEERTGGGTDAAYAALSGKPVIESLGLPGFGYHSDKAEYVDISAIPRRLYMAARLIMDLGAGK
modifications: 125I label
notes: bacterial enzyme carboxypeptidase G2, not conjugated to PEG
For the molecule B1, the “clearance from blood, tumour and normal tissues” value in data set [1] is given as “clears rapidly”.

B2: PEG 2000: CPG2 conjugated to PEG 2000 mwt (average 22-27 PEG molecules per CPG2) (conjugate, UniProt P06621 23-415, looked up)
Carboxypeptidase G2: B1 Carboxypeptidase G2
modifications: PEG 2000, 22-27 per molecule
Turning to B2, in data set [1], the “plasma levels compared with PEG 5000” value is given as “lower” and the “tumour concentrations of enzyme compared with PEG 5000” value is “similar”.

B3: PEG 5000 at 22 PEGs per CPG2: CPG2 conjugated to PEG 5000, 22 PEG molecules per CPG2 (conjugate, UniProt P06621 23-415, looked up)
Carboxypeptidase G2: B1 Carboxypeptidase G2
modifications: PEG 5000, 22 per molecule
notes: CPG2 conjugated to PEG 5000, 22 PEG molecules per CPG2
For the molecule B3, the “tumour growth delay compared to untreated controls” value in the data set on LS174T tumours is “significant growth delay”.

B4: PEG (5000) 32-CPG2: CPG2 conjugated to PEG 5000 mwt, average 32 PEG molecules per molecule of CPG2 (conjugate, UniProt P06621 23-415, looked up)
Carboxypeptidase G2: B1 Carboxypeptidase G2
modifications: PEG 5000, 32 per molecule
notes: CPG2 conjugated to PEG 5000 mwt, average 32 PEG molecules per molecule of CPG2
Turning to B4, in data set [1], the “plasma concentration of enzyme” value was “high and persistent”.
